Measured values as given in patent US20230348867.

What was measured:
Experiment in all cases: cell_activity
[1] = test system: SB100X (Variant 27) K14R,K33A,R115H,R214D,K215A,E216V,N217Q,M243H,T314N (synthetic); conditions: human CD34+ HSC, GFP+ CFU-E
[2] = test system: SB10 Sleeping Beauty transposase (synthetic (reconstructed from fish)); conditions: HeLa transposition, G418 colonies, reference
[3] = test system: SB Variant 4 K13D,K33A,T83A,H207V,K208R,D210E,M243Q (synthetic); conditions: HeLa transposition
[4] = test system: SB Variant 2 (3D5) K33A,R115H,R214D,K215A,E216V,N217Q,M243H (synthetic); conditions: HeLa transposition
[5] = test system: SB Variant 6 K33A,T83A,R214D,K215A,E216V,N217Q,G317E (synthetic); conditions: HeLa transposition
[6] = test system: SB Variant 21 K14R,K30R,R143L,A205K,H207V,K208R,D210E,R214D,K215A,E216V,N217Q,M243H,E267D (synthetic); conditions: HeLa transposition
[7] = test system: SB Variant 7 (12B1) K14R,T83A,M243Q (synthetic); conditions: HeLa transposition
[8] = test system: SB Variant 5 K13A,K33A,R214D,K215A,E216V,N217Q (synthetic); conditions: HeLa transposition
[9] = test system: SB M3a (Variant 30) K13A,K33A,T83A,R214D,K215A,E216V,N217Q (synthetic); conditions: HeLa transposition
[10] = test system: SB Variant 17 K14R,K30R,A205K,H207V,K208R,D210E,R214D,K215A,E216V,N217Q,M243H,T314N (synthetic); conditions: HeLa transposition
[11] = test system: SB Variant 8 K14R,T83A,I100L,M243Q (synthetic); conditions: HeLa transposition
[12] = test system: SB Variant 15 K14R,K30R,R147E,A205K,H207V,K208R,D210E,R214D,K215A,E216V,N217Q,M243H (synthetic); conditions: HeLa transposition
[13] = test system: SB Variant 3 (6A5) K14R,K30R,A205K,H207V,K208R,D210E,R214D,K215A,E216V,N217Q,M243H (synthetic); conditions: HeLa transposition
[14] = test system: SB Variant 12 K14R,T83A,M243Q,T314N (synthetic); conditions: HeLa transposition
[15] = test system: SB Variant 1 (2G6/6G2) K14R,R214D,K215A,E216V,N217Q (synthetic); conditions: HeLa transposition
[16] = test system: SB Variant 23 K14R,K30R,R143L,A205K,H207V,K208R,D210E,R214D,K215A,E216V,N217Q,M243H,G317E (synthetic); conditions: HeLa transposition
[17] = test system: SB Variant 14 K14R,K30R,R143L,A205K,H207V,K208R,D210E,R214D,K215A,E216V,N217Q,M243H (synthetic); conditions: HeLa transposition
[18] = test system: SB Variant 18 K14R,K30R,A205K,H207V,K208R,D210E,R214D,K215A,E216V,N217Q,M243H,G317E (synthetic); conditions: HeLa transposition
[19] = test system: SB Variant 16 K14R,K30R,A205K,H207V,K208R,D210E,R214D,K215A,E216V,N217Q,M243H,E267D (synthetic); conditions: HeLa transposition
[20] = test system: SB Variant 20 K14R,K30R,R147E,A205K,H207V,K208R,D210E,R214D,K215A,E216V,N217Q,M243H,T314N (synthetic); conditions: HeLa transposition

Row | Substance | binding signal [1] [fold vs SB10] | binding signal [2] [fold vs SB10] | binding signal [3] [fold vs SB10] | binding signal [4] [fold vs SB10] | binding signal [5] [fold vs SB10] | binding signal [6] [fold vs SB10] | binding signal [7] [fold vs SB10] | binding signal [8] [fold vs SB10] | binding signal [9] [fold vs SB10] | binding signal [10] [fold vs SB10] | binding signal [11] [fold vs SB10] | binding signal [12] [fold vs SB10] | binding signal [13] [fold vs SB10] | binding signal [14] [fold vs SB10] | binding signal [15] [fold vs SB10] | binding signal [16] [fold vs SB10] | binding signal [17] [fold vs SB10] | binding signal [18] [fold vs SB10] | binding signal [19] [fold vs SB10] | binding signal [20] [fold vs SB10]
1 | pT2-HB-CAG-GFP SB transposon | 100 |  |  |  |  |  |  |  |  |  |  |  |  |  |  |  |  |  |  | 
2 | pTNeo (SB inverted repeats flanking NeoR) |  | 1 | 20 | 30 | 20 | 50 | 15 | 20 | 10 | 25 | 5 | 30 | 30 | 10 | 20 | 35 | 40 | 25 | 30 | 40
